The data set in a line: yeast display, Sf9 membrane polyspecificity reagent, FACS + sequencing; frameworks hold sequencing errors. The essentials:
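Using colony PCR, genes from sorted yeast display clones were amplified, then sequenced on MiSeq at 2 × 250 and filtered by CDR length. The clones had been stained with 10% biotinylated, detergent-solubilized Sf9 membrane reagent for 1 hour at 4 °C and sorted by FACS into low and high (top ~1%) gates on anti-HA and streptavidin fluorescence. Polyreactivity labels come from the gate of origin.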
With “QVQRVESGGGLVQAGGSLRLSCAASGSTIAKNAMGWYRQAPGKERELVAAISRGGNTYYADSVKGRFTISRDNAKNTVYLQMNSLKPEDTAVYYCAARYLYRSLKMDYWGQGTQVTVSS”, the “polyreactivity (PSR sort gate)” value was “high polyreactivity”. For “QVQRVESGGGLVQAGGSLRLSCAASGVIFDDNAMGWYRQAPGKERELVAAITYRGGSTYYADSVKGRFTISRDNAKNTVYLQMNSLKPEDTAVYYCAAGGTARDDSWGQGTQVTVSS”, the “polyreactivity (PSR sort gate)” value is “low polyreactivity”. On to “QVQRVESGGGLVQAGGSLRLSCAASRSIVNIYAMGWDRPAPGKERELVATITGIADSTYYADSVKGRFTISRDNAKNTVYLQMNSLKPEDTAVYYCAIYVSWPLYYYWGHGTQVTVSS”, for which the “polyreactivity (PSR sort gate)” value is given as “low polyreactivity”. In the case of “QVQRVESGGGLVQAGGSLRLSCAPSGSTFPSYAMGWYRQAPGKERELVAAITRRGGRTYYADSVKGRFTISRDNAKKTVYLQMNSLKPEDTAVYYCNRVSRKILDGDYDYWGQGTQVTVSS”, the “polyreactivity (PSR sort gate)” value was “high polyreactivity”. In the case of “QVQRVESGGGLVQAGGSLRLSCPASGRIFRYYAMGWYRPAPGKEREMVARITRNGGTTYYADSVKGRFTISRDNAKNTVYLQMNSLKPEDTAVYYCAATYSVPYYGAWPEYDYWGQGTQVTVSS” it was “high polyreactivity”; in that of “QVQRVESGGGLVQAGGSLRLSCPASGSTKFNAMGWNRQPPGKERELVATITANGDSTYYADSVKGRFTISRDNAKNTVYLQMNSLKPEDTAVYYCNADAYIRMDSWGQGTQVTVSS”, “low polyreactivity”; in that of “QVQRVESGGGLVQAGRSLRLSCAASGRTFTVYAMGWYRQAPGKERELVAGIRRGDSTYYADSVKGRFTISRDNAKHTVYLQMNSLKPEDTAVYYCNARTSGSSYYYWGQGTQVTVCS”, “high polyreactivity”.

“QVQRVESGGGLVQARGSLRLSCAASGSTFPAYAMGWYRQARGKEREWVATITYTGGSTFYADSVKGRFTISRDNAKNTVYLQMNILKPEDTEVYYCAADRGDQEDEFDYWGQGTQVTVSS”: the “polyreactivity (PSR sort gate)” value is on record as “low polyreactivity”. As for “QVQRVESGGRLVQAGGILRVSCAASGGTFGINAMGWYRQSPGKEREFVAAITRGDGSTYYADSVKGRFTISRDNAKNTVFIQMKSLKPEDTAVYYCAKRYFVYYSMDYWGQGTQVTVSS”, the “polyreactivity (PSR sort gate)” value is on record as “low polyreactivity”. As to “QVQRVESGRGLVQAGGSLRLSCAASGRTFRINAMGWYRQSPGKERELVASINSGGRTYYADSVKGRFTISRDNAKNTVYLQMNSLKPEDTAVYYCAAAGGRTGDYWGQGTQVTGSS”, the “polyreactivity (PSR sort gate)” value was “high polyreactivity”. Turning to “QVQRVESRGGLVKSGGSLRLSSASSGSTFRWYAMGWYRQAPGKERELVARINTRGGGTYYADSVKGRFTISRDNAKNTVYLQMNSLKPEDTAVYYCAAYSSWSGGLGGDYYWGQGTQVTVSS”, the “polyreactivity (PSR sort gate)” value is listed as “low polyreactivity”. For the sequence “QVQRVESRVSLVQEGGSLRLSCASSGLIYYRYTMGCYINAPVKEREVFAAISSGGRTYYADSVKGRFTISRDNAKNTVYLQMNSLKPEDTAVYYCATRVYSVHAPSAVPIGGYYWGQGTQVTVSS”, the “polyreactivity (PSR sort gate)” value was “high polyreactivity”. For the sequence “QVQRVESVGGLVQAGGRLRLSCAASGRTFVYYTMGWYRQAPGKERELVAAISWNGDDTYYADSVKGRFTISRDNAKNTVYLQMNSLKPEDTAVYYCAKESYTDYDTYYYWGQGTQVTVSS”, the “polyreactivity (PSR sort gate)” value is given as “low polyreactivity”.

On to “QVQVEESGGGLVQAGGSLRLSCAASGSIFNRYAMGWYRQAPGKERELVAAISRSGSTYYADSVKGRFTISRDNAKNTVYLQMNSLKAEDTEVYYCNARGTTHHTSYDYWGQGTQVTVSS”, for which the “polyreactivity (PSR sort gate)” value is “low polyreactivity”. The entry for “QVQVVESGGALVQEGGSLRISCAASGSIFAIYVLGWSRQAPGKERELVAAITGSGGSTYYADSVKGRFTISRDNAKITVYVQMNSQKPEDTAVYYCAARVLRVRTLTTTWGQGTQVTVSS” is “high polyreactivity”. With “QVQVVESGGGFVQAGGSLRLSCAASGFTYYSYAMGWYRQAPGKEREFVAAGSTYYADSVKGRFTISRDNAKNTVYLQMNSLTPEDTAVYYCAADPWIYVQSYGYWGQGTQVTVSS”, the “polyreactivity (PSR sort gate)” value is recorded as “low polyreactivity”. As to “QVQVVESGGGLLQAGGSLRLSCAASGSTFGWYAMGWYRQAPWKERELVAANTGDSASTYYADSVKGRFTISRDNAKNTVYLQMNSLKPEDTAVYYCAASKFSDFGYQAVIGYGYWGQGTQVTVSS”, the “polyreactivity (PSR sort gate)” value is “low polyreactivity”. In the case of “QVQVVESGGGLLQAGGSLRLSCASSGSTFQYNAMGRYRPAPRKERELVAVITRRGGRTYYADSVKGRFTISRDNAKNTVYLQMNSLKPEDTAVYYCAAYYDYTHRFYYWGQGTQVTVSS” it was “high polyreactivity”; in that of “QVQVVESGGGLVKAGGSLSLSCDASGITFVAYAMGWYRQAPGKERELVAAISYNGGSTNYADSVKGRFTISRDNAMNTVYLQINSLKPEDTAVFYCAADLADFYPRFNYWGQGTQVTVSS”, “low polyreactivity”; in that of “QVQVVESGGGLVNAAGSLRLSCAPSVSTSKWYTMGWDRQAPGKERELVAAITGSGGSTFYADSVKGRFTISRDNAKNTVYLQMHSLKQEDTAVYYCAADVYGGGVSFRFRYDSWGQGTQVTVSS”, “low polyreactivity”. The entry for “QVQVVESGGGLVPAGGSLRLSCAASGRIFADNDMGWYRQAPGKERELVAGISSGGGTYADSVKGRFSISRDNAKNTVSVQTNSPKPEDTAVHYCNALHAYYVLTPYDYWGQGTQVTVSS” is “low polyreactivity”. For the sequence “QVQVVESGGGLVQAGGSLRLSCAASGFIFSFYAMGWYRQAPGKERELVAAINWSGGSTYYADSVKGRFTISRDNAKNTVYLQMNSLKPEDTAVYYCNAVQYFSIPKPVWLFVLRYYYWGQVTQVTVSS”, the “polyreactivity (PSR sort gate)” value is on record as “low polyreactivity”.

“QVQVVESGGGLVQAGGSLRLSCAASGFIFWEYAMGWYRQAAVKECELVSAISTSGGSTYYADSVKGRFTISRDNAMNSVYLQKNCLKQEDTAVYYCATDVYSGPLLKYDYWGQGTKVTVSS”: the “polyreactivity (PSR sort gate)” value is recorded as “low polyreactivity”.

As for “QVQVVESGGGLVQAGGSLRLSCAASGFIFYVYAMGWYTQAPGKERELVAAISKRSGGTRYADSVKGRFTISRDNAKNTVYLQMNSLKPEDTAVYYCNKYGQVPGYFSLDYWGQGTQVTVSS”, the “polyreactivity (PSR sort gate)” value is recorded as “high polyreactivity”. In the case of “QVQVVESGGGLVQAGGSLRLSCAASGFTFAWYTMGWYRQAPGKERELVAAISTGGNTYYADSVKGRFTISRDNAKNTVYLQMNSLKPEDTAVYYCATRPRGQTYNYWGQVTQVTVSS”, the “polyreactivity (PSR sort gate)” value is “high polyreactivity”. As for “QVQVVESGGGLVQAGGSLRLSCAASGFTFSFYAMGWYRQAPGKERELVAAISSGGTTSYADSVKGRFTISRDYAKNTVYLQMNSLKPEDTAVYYCATDVYYYRTGAYTSTKPYDYWGQGTQVTVSS”, the “polyreactivity (PSR sort gate)” value is recorded as “low polyreactivity”. The entry for “QVQVVESGGGLVQAGGSLRLSCAASGGTFGGYAMGWYRQAPGKERELVAAISSGGSTYYADSVKGRFTISRDNAKNTLYLQMNSLKPEDTAVYYCAAETVLGYWYYRKYYYWGQGTQVTVSS” is “high polyreactivity”; for “QVQVVESGGGLVQAGGSLRLSCAASGIIFGAYAMGWYRQAPWKEMELVAAITYSSGSTYYADSVKGRFTISRDNSKNTVYLQMNSLKPEDTAVYYCDKTNFSQSSRFNYDYWGQGTQVTVSS” it is “low polyreactivity”; for “QVQVVESGGGLVQAGGSLRLSCAASGINFLTNAMGWYRQAPGKERELVAAISQSGGSTYYADSVKGRFTISRDHAKNTVYLQMNSLKPEDTAVYYCAAPQRYPRFYYWGQGTQVTVSS” it is “high polyreactivity”. For the sequence “QVQVVESGGGLVQAGGSLRLSCAASGLTFIFNAMGWYRQAPGKERELVADISSGVNTNYADSVKGRFSISRDNEKNTVYLQMNSLKTEDTEVHYCADRLAQTTGYGYWGQGTQVNVSS”, the “polyreactivity (PSR sort gate)” value is on record as “low polyreactivity”. The entry for “QVQVVESGGGLVQAGGSLRLSCAASGRIFNYYAMGWYRQAPRKERELVAVISRTGVRTHYADSVKGRFTISRDNAKNTVYLQMNCLKPEDTAVYYCNADSYVFRYDYWGQGTQVTVSS” is “high polyreactivity”; for “QVQVVESGGGLVQAGGSLRLSCAASGRIFPLYAMGWSRQAPGTERELVAAISSGGTTYYADSVKGRFTFSRDNAKNTVYLQMNSLKPEDTAVYYCARRPAQRWGRFDYWGQGTQVTVSS” it is “low polyreactivity”; for “QVQVVESGGGLVQAGGSLRLSCAASGRIFRANAMGGYRKAPGKERELVADISRSAGSTYYADSVKGRFTISRDNAKNTVYLQLNSLKPADTAVYYCAKRGYYSFDYWGQGTQVTVSS” it is “high polyreactivity”.

Consider “QVQVVESGGGLVQAGGSLRLSCAASGSIFVYYTMGWYRQAPGKERELVAAITRGGRTNFADSVKGRFTISRDNAQNSVYLLMNSLNPEDTAVYYCAKGYYWLSTYGDSRYGYWGQGTQVTVSS”, for which the “polyreactivity (PSR sort gate)” value is “high polyreactivity”.

Turning to “QVQVVESGGGLVQAGGSLRLSCAASGSIVSHYAMGWYRQAPGKERELVAGISRRGGRTYYADSVKGRFTISRDNAKNTVYLQMNSLKPEDTAVYYCAALRSSSFGYWGQGTQVTVSS”, the “polyreactivity (PSR sort gate)” value is given as “high polyreactivity”. The entry for “QVQVVESGGGLVQAGGSLRLSCAASGSNFQRYTMGLYRQAPGKDRELVAAITGRGGSTYYADSVKGRFTISRDNAKNTVYLEMNSLKPEDTAVYYCAAGAFRRYKSDYYYWGQGTQVTVSS” is “low polyreactivity”; for “QVQVVESGGGLVQAGGSLRLSCAASGSTFKKYAMGWYRQAPGKERELVAAISWSGGSTYYADSVKGRFTISRDNAKNTVYLQMNSLKPEDTAVYYCAAYPYTYYLDRYEYWGQGTQVTVSS” it is “high polyreactivity”. The entry for “QVQVVESGGGLVQAGGSLRLSCAASGSTFQYYAMGWYRQAPGKEREFFAAITWSGGRTYYADSVKGRFTISRDNAKNTVYLQMKSLKPEDTAVYYCAADIDGVWIPYEYDYWGQGTQGTVSS” is “low polyreactivity”. In the case of “QVQVVESGGGLVQAGGSLRLSCAASGSTFYINAIGWYRQAPGNERELVAAIYFRGGSTYYADSVKGRFPISRDNAKNTVYVKMNSLKPEVTAVYYCAAYYYFFRRYSWRLSCDYWGQGTQVTVSS” it was “low polyreactivity”; in that of “QVQVVESGGGLVQAGGSLRLSCAPSGRIFLGNRMSWYRHAPGKERELVAAISKSGGTTYYADSVKGRFTISRDNAKNTVYLQMNSLKPEDTAVYYCAASRPRPPSSRRMDYWGQGTQVTVSS”, “high polyreactivity”. On to “QVQVVESGGGLVQAGGSLRLTCAASGRTFYKNAMGWYRQAAGKERELFAAITTRGGTTFYADSVKGRFTISRDNAKNTDYLQLNSMIPEDTAVDYCAKDSYTRPRGYDFWGQGTHVTVSS”, for which the “polyreactivity (PSR sort gate)” value was “high polyreactivity”.

The values above are taken from the nanobody polyreactivity screen of Harvey et al. (2022).
